Values of other authors as cited in PMC6414276.
Read-outs that look alike come from different tables or passages of the source. Values belong to the substance of their own block, whether it stands above or below them.

Legend:
CBP TAZ1 (Mus musculus) [1] = biological target: CBP TAZ1 (Mus musculus) (UniProt P45481)
CBP TAZ1 (Mus musculus) [2] = biological target: CBP TAZ1 (Mus musculus) (UniProt P45481); remark: listed apart in the source
CBP TAZ1 (Mus musculus) [3] = biological target: CBP TAZ1 (Mus musculus) (UniProt P45481); remark: listed apart in the source

Chain of UniProt P45481 (P45481 340-439): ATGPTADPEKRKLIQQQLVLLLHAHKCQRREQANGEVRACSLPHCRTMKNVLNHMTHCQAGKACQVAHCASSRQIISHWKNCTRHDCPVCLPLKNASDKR

- Kd (CBP TAZ1 (Mus musculus) [1]): 0.047 µM
Substance: HIF-1α 790-826 (from UniProt Q16665)

- Kd (CBP TAZ1 (Mus musculus) [2]): > 1000 µM
Substance: HIF-1α LPQL-αB motif (from UniProt Q16665)

- Kd (CBP TAZ1 (Mus musculus) [3]): 200 µM
Substance: HIF-1α αC motif (from UniProt Q16665)
